According to patent US20140294898A1 (published 2014):
Values belong to the binder of their own block, whether it stands above or below them. Starred links: 1 amine or outer side, 2 acyl side, 3 side chain; linkers in the order of their positions; H or OH if unused. Positions of bridges follow the written chain, without caps; N, C: chain ends. Non-standard residues stand in square brackets, D forms with d. trans‑Pro(4-(4-fluorobenzyl)) = trans-4-(4-fluorobenzyl)-L-proline, O=C([C@@H]1C[C@@H](Cc2ccc(F)cc2)CN1[*:1])[*:2]; Pro(cis-4-Ph) = O=C(O)[C@@H]1C[C@H](c2ccccc2)CN1; NMeNle = CCCC[C@H](NC)C(=O)O; NMeA = CN[C@@H](C)C(=O)O; Dab = NCC[C@H](N)C(=O)O

Experiments:
hPDL1(19-239)-TVMV-His [1] = molecular target: T1, hPDL1(19-239)-TVMV-His (human, UniProt Q9NZQ7 19-239); test: HTRF competition, inhibitor titrated against PD-1-Ig binding to PD-L1-His
T1 construct: The text says amino acids 18-239, the construct name says 19-239; also called PD-L1-His; PD-L1-TVMV-His
Method: (§1) All binding studies were performed in an HTRF assay buffer consisting of dPBS supplemented with 0.1% (w/v) bovine serum albumin and 0.05% (v/v) Tween-20. […] PD-L1 fusion proteins from either human, cynomologous macaques, or mouse were used. HTRF detection was achieved using europium crypate-labeled anti-Ig monoclonal antibody (1 nM final) and allophycocyanin (APC) labeled anti-His monoclonal antibody (20 nM final). Antibodies were diluted in HTRF detection buffer and 5 μl was dispensed on top of binding reaction. The reaction was allowed to equilibrate for 30 minutes and signal (665 nm/620 nm ratio) was obtained using an EnVision fluorometer. […]
HTRF Experiments were performed essentially as outlined supra. Variant macrocyclic peptides were created as outlined herein.
T1 sequence (Q9NZQ7 other isoform, or with tags, fused parts or gaps limits assumed): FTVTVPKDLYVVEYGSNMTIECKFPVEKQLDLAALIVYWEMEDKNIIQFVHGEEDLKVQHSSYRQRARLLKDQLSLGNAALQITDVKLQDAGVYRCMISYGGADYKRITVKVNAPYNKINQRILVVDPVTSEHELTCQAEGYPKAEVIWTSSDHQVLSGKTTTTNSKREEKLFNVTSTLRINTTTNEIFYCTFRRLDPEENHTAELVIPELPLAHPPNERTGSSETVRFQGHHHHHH

hPDL1(19-239)-TVMV-His [2] = molecular target: T1, hPDL1(19-239)-TVMV-His; test: as above; remark: listed apart in the source
Method: as §1

[3] = molecular target: T2, human PD-L1 expressed on cells (human, UniProt Q9NZQ7 19-290); test: cell binding assay, PE-labeled PD-1-Ig on cells over-expressing human PD-L1, high-content imaging
T2 construct: whole, on cells; In the CMV recall assay PD-L1 is the endogenous protein on donor PBMC; also called hPD-L1; LK35.2-hPD-L1
T2 sequence (Q9NZQ7 19-290): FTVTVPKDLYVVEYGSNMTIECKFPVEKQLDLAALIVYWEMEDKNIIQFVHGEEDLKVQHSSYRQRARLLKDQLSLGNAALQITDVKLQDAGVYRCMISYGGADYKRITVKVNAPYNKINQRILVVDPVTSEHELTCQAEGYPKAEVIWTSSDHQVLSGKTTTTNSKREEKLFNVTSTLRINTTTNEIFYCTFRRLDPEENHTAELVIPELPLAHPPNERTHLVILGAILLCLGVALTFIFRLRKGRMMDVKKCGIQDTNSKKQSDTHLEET

hPDL1(19-239)-TVMV-His [4] = molecular target: T3, hPDL1(19-239)-TVMV-His (human, UniProt Q9NZQ7 19-239); test: HTRF competition, PD-1-Ig binding to PD-L1-His
T3 construct: The text says amino acids 18-239, the construct name says 19-239; also called PD-L1-His; PD-L1-TVMV-His
T3 sequence (Q9NZQ7 other isoform, or with tags, fused parts or gaps limits assumed): as the sequence (Q9NZQ7 other isoform, or with tags, fused parts or gaps limits assumed) above

human PD-L1 on cells [5] = molecular target: T4, human PD-L1 on cells (human, UniProt Q9NZQ7 19-290); test: cell binding assay (CBA): PE-labelled PD-1-Ig on cells over-expressing human PD-L1
T4 construct: whole, on cells; The same entry serves as PD-L1 on PBMC in the CMV recall assay; also called hPD-L1; LK35.2-hPD-L1
T4 sequence (Q9NZQ7 19-290): as the sequence (Q9NZQ7 19-290) above

hPDL1(19-239)-TVMV-His [6] = molecular target: T5, hPDL1(19-239)-TVMV-His (human, UniProt Q9NZQ7 19-239); test: HTRF competition of PD-1-Ig binding to PD-L1-His
T5 construct: The text says amino acids 18-239, the construct name says 19-239; The entry includes the TVMV site and the His tag; also called PD-L1-His; PD-L1-TVMV-His
T5 sequence (Q9NZQ7 other isoform, or with tags, fused parts or gaps limits assumed): as the sequence (Q9NZQ7 other isoform, or with tags, fused parts or gaps limits assumed) above

human PD-L1 on cells [7] = molecular target: T4, human PD-L1 on cells; test: cell-based or functional assay
human PD-L1 on cells [8] = molecular target: human PD-L1 on cells (human, UniProt Q9NZQ7 19-290); test: cell-based or functional assay; remark: listed apart in the source
Target sequence in this assay (Q9NZQ7 19-290): as the sequence (Q9NZQ7 19-290) above

B1: Compound No. 99 (peptide)
peptide: {CH2CO}-FLIVIRDRVFRCG-NH2
modifications: thioether N-12
notes: Macrocyclic peptide; parent of the Formula III series
- IC50 (hPDL1(19-239)-TVMV-His [1]): 153 nM
- IC50 (hPDL1(19-239)-TVMV-His [2]): 153 nM

B2: Compound No. 111 (peptide)
peptide: FLIVIRDRFFRCG
HELM: PEPTIDE1{[O=C(C[*:3])[*:2]].F.L.I.V.I.R.D.R.F.F.R.C.G.[am]}$PEPTIDE1,PEPTIDE1,1:R3-13:R3$$$V2.0
SMILES: CC[C@H](C)[C@@H]1NC(=O)[C@H](CC(C)C)NC(=O)[C@H](Cc2ccccc2)NC(=O)CSC[C@@H](C(=O)NCC(N)=O)NC(=O)[C@H](CCCNC(=N)N)NC(=O)[C@H](Cc2ccccc2)NC(=O)[C@H](Cc2ccccc2)NC(=O)[C@H](CCCNC(=N)N)NC(=O)[C@H](CC(=O)O)NC(=O)[C@H](CCCNC(=N)N)NC(=O)[C@H]([C@@H](C)CC)NC(=O)[C@H](C(C)C)NC1=O
notes: Macrocyclic variant of Compound No. 99
- IC50 (hPDL1(19-239)-TVMV-His [1]): 540 nM

Binder: {CH2CO}-FLIVIRDRVFRCG-NH2 (thioether N-12)
- IFNγ secretion by CMV-specific T cells (ELISA), EC50 (human PD-L1 on cells [8]): > 10000 nM

Next, values leading:

- IC50 [3]: 629 nM
- IC50 (hPDL1(19-239)-TVMV-His [4]): 132 nM
B3: Example 3526 (peptide)
peptide: FFXGDVFYGYYLCG
HELM: PEPTIDE1{[O=C(C[*:3])[*:2]].F.[meF].[CCCC[C@@H](C(=O)[*:2])N(C)[*:1]].[Sar].D.V.[meF].Y.[Sar].Y.Y.L.C.G.[am]}$PEPTIDE1,PEPTIDE1,1:R3-14:R3$$$V2.0
SMILES: CCCC[C@H]1C(=O)N(C)CC(=O)N[C@@H](CC(=O)O)C(=O)N[C@@H](C(C)C)C(=O)N(C)[C@@H](Cc2ccccc2)C(=O)N[C@@H](Cc2ccc(O)cc2)C(=O)N(C)CC(=O)N[C@@H](Cc2ccc(O)cc2)C(=O)N[C@@H](Cc2ccc(O)cc2)C(=O)N[C@@H](CC(C)C)C(=O)N[C@H](C(=O)NCC(N)=O)CSCC(=O)N[C@@H](Cc2ccccc2)C(=O)N(C)[C@@H](Cc2ccccc2)C(=O)N1C
notes: ClAc-Phe-[N-Me]Phe-[N-Me]Nle-Sar-Asp-Val-[N-Me]Phe-Tyr-Sar-Tyr-Tyr-Leu-Cys-Gly-NH2, cyclised

- IC50 (human PD-L1 on cells [5]): 2.69 nM
- IC50 (hPDL1(19-239)-TVMV-His [6]): 9.87 nM
- CMV Recall EC50; IFNγ secretion by CMV-specific T cells (human PD-L1 on cells [7]): 38.4 nM
B4: Example 13011 (peptide)
peptide: {CH2CO}-Y[NMeA]NPHE[trans‑Pro(4-(4-fluorobenzyl))]W[Dab]W[NMeNle][NMeNle][Dab]CG-NH2
modifications: thioether N-14
SMILES: CCCC[C@H]1C(=O)N(C)[C@@H](CCCC)C(=O)N[C@@H](CCN)C(=O)N[C@H](C(=O)NCC(N)=O)CSCC(=O)N[C@@H](Cc2ccc(O)cc2)C(=O)N(C)[C@@H](C)C(=O)N[C@@H](CC(N)=O)C(=O)N2CCC[C@H]2C(=O)N[C@@H](Cc2c[nH]cn2)C(=O)N[C@@H](CCC(=O)O)C(=O)N2C[C@H](Cc3ccc(F)cc3)C[C@H]2C(=O)N[C@@H](Cc2c[nH]c3ccccc23)C(=O)N[C@@H](CCN)C(=O)N[C@@H](Cc2c[nH]c3ccccc23)C(=O)N1C
notes: X marks Dab and Nle

- IC50 (human PD-L1 on cells [5]): 1.47 nM
- IC50 (hPDL1(19-239)-TVMV-His [6]): 4.11 nM
- CMV Recall EC50; IFNγ secretion by CMV-specific T cells (human PD-L1 on cells [7]): 27.2 nM
B5: Example 13006 (peptide)
peptide: {CH2CO}-Y[NMeA]DPHK[Pro(cis-4-Ph)]WKW[NMeNle][NMeNle]ECG-NH2
modifications: thioether N-14
SMILES: CCCC[C@H]1C(=O)N(C)[C@@H](CCCC)C(=O)N[C@@H](CCC(=O)O)C(=O)N[C@H](C(=O)NCC(N)=O)CSCC(=O)N[C@@H](Cc2ccc(O)cc2)C(=O)N(C)[C@@H](C)C(=O)N[C@@H](CC(=O)O)C(=O)N2CCC[C@H]2C(=O)N[C@@H](Cc2c[nH]cn2)C(=O)N[C@@H](CCCCN)C(=O)N2C[C@@H](c3ccccc3)C[C@H]2C(=O)N[C@@H](Cc2c[nH]c3ccccc23)C(=O)N[C@@H](CCCCN)C(=O)N[C@@H](Cc2c[nH]c3ccccc23)C(=O)N1C
notes: X marks Nle

- IFNγ secretion by CMV-specific T cells (ELISA), EC50 (human PD-L1 on cells [8]): 400 nM
B6: Compound No. 2 (peptide)
peptide: {CH2CO}-F[NMeA]NPHHSWRW[NMeNle][NMeNle]LCG-NH2
modifications: thioether N-14
SMILES: CCCC[C@H]1C(=O)N(C)[C@@H](CCCC)C(=O)N[C@@H](CC(C)C)C(=O)N[C@H](C(=O)NCC(N)=O)CSCC(=O)N[C@@H](Cc2ccccc2)C(=O)N(C)[C@@H](C)C(=O)N[C@@H](CC(N)=O)C(=O)N2CCC[C@H]2C(=O)N[C@@H](Cc2c[nH]cn2)C(=O)N[C@@H](Cc2c[nH]cn2)C(=O)N[C@@H](CO)C(=O)N[C@@H](Cc2c[nH]c3ccccc23)C(=O)N[C@@H](CCCNC(=N)N)C(=O)N[C@@H](Cc2c[nH]c3ccccc23)C(=O)N1C
